Source: article PMC8063937, “A Novel Cysteine Protease Inhibitor of Naegleria fowleri That Is Specifically Expressed during Encystation and at Mature Cysts” (Pathogens, 2021)

T1: recombinant cathepsin-B cysteine protease of N. fowleri (NfCB) (Naegleria fowleri)
T1 chain: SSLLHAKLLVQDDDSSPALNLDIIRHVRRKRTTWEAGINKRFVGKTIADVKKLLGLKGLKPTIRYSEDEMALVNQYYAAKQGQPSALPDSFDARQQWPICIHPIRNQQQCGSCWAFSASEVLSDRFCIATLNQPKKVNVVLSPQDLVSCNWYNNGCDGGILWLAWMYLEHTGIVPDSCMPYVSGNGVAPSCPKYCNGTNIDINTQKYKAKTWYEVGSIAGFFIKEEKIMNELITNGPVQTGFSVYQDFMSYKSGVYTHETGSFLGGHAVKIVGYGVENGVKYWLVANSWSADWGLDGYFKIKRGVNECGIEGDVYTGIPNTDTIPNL

T2: papain (UniProt P00784 134-345)
T2 construct: Papain, cysteine protease bought from Sigma; source: bought: Sigma
T2 sequence (looked up): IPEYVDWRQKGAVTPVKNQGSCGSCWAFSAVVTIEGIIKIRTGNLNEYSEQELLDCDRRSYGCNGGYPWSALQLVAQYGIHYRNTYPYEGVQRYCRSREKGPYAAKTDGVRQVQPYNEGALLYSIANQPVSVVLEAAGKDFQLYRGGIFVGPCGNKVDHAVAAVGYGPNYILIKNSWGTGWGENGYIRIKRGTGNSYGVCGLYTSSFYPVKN

B1: recombinant cysteine protease inhibitor of Naegleria fowleri (NfCPI), lacking the signal peptide (natural protein)
chain: ALPIATNVIPGGRQPISNQTLIEELTTFIPKASSNGVCRVTRVLSAQQQVVAGTIYYLVVEVSTSCDATSSQTFCEKLKIFRPLVTRSVENPQLQLQKEQRVDCNTP
notes: ORF of 136 residues; the forward primer encodes LPIATNV as its first residues, the reverse primer ends at the stop codon; cDNA from strain Carter NF69 (ATCC 30215); also called recombinant NfCPI; source: E. coli M15 (pREP14), pQE-9, purified (Ni-NTA)

Key:
[1] = target: recombinant cathepsin-B-like cysteine protease of N. fowleri (NfCBL) (Naegleria fowleri); experiment: enzyme inhibition assay (residual activity on a fluorogenic substrate); 10 nM enzyme incubated with 0-100 nM NfCPI in 50 mM sodium acetate pH 6.0, 20 min, RT; substrate Z-LR-MCA in 50 mM sodium acetate pH 5.0 with 10 mM DTT; Ki calculated from IC50 and Km, non-linear regression
[2] = target: the molecule itself; experiment: non-reducing PAGE; purified NfCPI, with 0-10% SDS, without β-mercaptoethanol, with or without heating at 100 °C for 5 min
[3] = target: T1, recombinant cathepsin-B cysteine …; experiment: enzyme inhibition assay (residual activity on a fluorogenic substrate); 10 nM enzyme incubated with 0-100 nM NfCPI in 50 mM sodium acetate pH 6.0, 20 min, RT; substrate Z-LR-MCA in 50 mM sodium acetate pH 5.0 with 10 mM DTT; Ki calculated from IC50 and Km, non-linear regression; conditions: both partners purified
papain = target: T2, papain; experiment: as above; conditions: both partners purified

Row | Molecule | Ki [1] [nM] | stoichiometry N [2] | Ki [3] [nM] | Ki (papain) [nM]
1 | recombinant cysteine protease inhibitor of Naegleria fowleri (NfCPI), lacking the signal peptide (from UniProt A0A6A5BTM4 30-136) (natural protein) | 0.144 |  |  | 
2 | B1 |  | 2 | 0.193 | 0.259
